test system: MS2 coat protein; experiment: apparent KD of MS2 coat protein, switch ON state; designed switch direction (-1 OFF switch, 1 ON switch): 1; higher = weaker reporter binding; settings: FMN input: 0 or 200 uM; Eterna round: R93 (includes R88 designs)
Outline: (§1)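 Illumina sequencing clusters served as templates for on-chip transcription of the designed RNA switches. SNAP-549-labelled MS2 coat protein was then titrated in twofold steps from 0.7 or 1.5 nM to 3 µM, allowing 0.8–1.5 h per step at first and 10–20 min per step later. The buffer held 100 mM Tris-HCl pH 7.5, 80 mM KCl and 4 mM MgCl2, without or with constant ligand. Apparent KD is the median per design of normalised cluster binding-curve fits.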

In order of falling “apparent KD of MS2 coat protein” value:
1. AAACCACAUGAGGAUCACCCAUGUAAGAUAUACAUAGGAUAUGCGAAAAGAAACAAAGAAGCAGAAGGGUGAAAAA [75%, Ex sub1, 14]  172 nM
2. AAUAAACAUGAGGAUCACCCAUGUCGGUAAAGUCAAGGAUAUGGGACUGGGAUUAAAGUGCCAGAAGGUGAAAAUA [Raxela]  122 nM
3. ACUUCACAUGAGGAUCACCCAUGUCAGGCCGGACUAGGAUAUUAUAAACCAGAGUAAAAAUAAGAAGGAGUAGGAA [JR_SS001_Sub311]  67.9 nM
4. AAGAAACAUGAGGAUCACCCAUGUGAUAAUAUGGGAGGAUAUACGAAGUCGAAAGUCGAAGUAGAAGGCCUAAGAA [Garnet 41]  49 nM
5. AAAAAACAUGAGGAUCACCCAUGUAAAAAAAAUGGAGGAUAUUGGAAAAAAAAAAAAAAACGAGAAGGCUAAAAAA [quick and simple]  44.4 nM
6. GAUAAACAUGAGGAUCACCCAUGUAGAUAUAUGGGAGGAUAUACAUAGACGAUAGUCAUAGUAGAAGGCCUAAUAG [77%, Mat - Mod of Eli - With 6 more U's]  35.6 nM
7. GGGAGGAAGAGAGAGGAUAUCCAAAGGAAAACAUGAGGAUCACCCAUGUAAAAGGUAGGAAAUUGGGAGAAGGCUCAAAAGACGG [salish99-ss2-047]  28.1 nM
8. ACCAGGAAGAGAGAGGAUAUCCAAAGGAAAACAUGAGGAUCACCCAUGUAAAAGGUAGGAAAUUGGGAGAAGGCUCAAGAGAGAG [salish99-ss2-101]  26.7 nM
9. GAAAAACAUGAGGAUCACCCAUGUAGAAAUAUGGGAGGAUAUACGAAGACGAAAGUCAAAGUAGAAGGCCUAAAGA [Mat - Same State 1 - Eli mod - D103]  26.5 nM
10. GAUAAACAUGAGGAUCACCCAUGUAGAAAUAUGGGAGGAUAUACAAAGACGAUAGUCAAAGUAGAAGGCCUAAAAG [77%, Mat - Mod of Eli - With 2 more U's]  24.8 nM
11. AACCAACAUGAGGAUCACCCAUGUAGAAAUAUGGGAGGAUAUACAAACACGAAAGUGAAAGUAGAAGGCCUAAAAG [77%, Mat - Mod of Eli, 6]  22.5 nM
12. AAAAGACAUGAGGAUCACCCAUGUAGGCCAAAGCAAGGAUAUAGGCCACAGGGACGUGGACUAGAAGGUGCACGGC [Xereedes]  21.9 nM
13. AAAAAAAAUGUGUAGGAUAUCAGUAAAAAUACAUGAGGAUCACCCAUGUUCAAAAAAAAAAAAACUGAGAAGGACACGGGAAGUCC [Design 2]  20.5 nM
14. AAUAUAUUAAGUGAGGAUAUCGAGGAAAAAACAUGAGGAUCACCCAUGUGGGAAACCUGGUCGGGUGAGAAGGCACUUAAUAUAU [Samwise Clockwise 26 - Jieux - Same State 2]  19.8 nM
15. AUAAAACAUGAGGAUCACCCAUGUAGACAUAUGGGAGGAUAUACUAGAUCGAAAGAUCUAGUAGAAGGCCUUUAUA [JL Mod of Eli 8]  19.2 nM
16. UUACAGCACGGGUAGGAUAUGUAGGGUGGUACAUGAGGAUCACCCAUGUAUCCACCCUUCUAACGGCAGAAGGGCCUGUCGCUGC [Riarve]  16.9 nM
17. AAAAUACAUGAGGAUCACCCAUGUGAAAAUAUGGAAGGAUAUCAAUGCAAAAAAAAGCAUUGAGAAGGUCCAAAAA [SS! 1 MT 8]  16.7 nM
18. AGGUAACAUGAGGAUCACCCAUGUACCAAUAAUGCAGGAUAUCGACACGAAAAUACGUGUCGAGAAGGGCAUGAAA [SS1 MT 22]  13.4 nM

test system: MS2 coat protein; experiment: apparent KD of MS2 coat protein, switch OFF state (with FMN for OFF switches, without FMN for ON switches); designed switch direction (-1 OFF switch, 1 ON switch): -1; higher = weaker reporter binding; settings: FMN input: 0 or 200 uM; Eterna round: R93 (includes R88 designs)
Outline: as §1

In order of rising “apparent KD of MS2 coat protein” value:
1. AGCAAGUUAGGAUAUGCAAAGUCAGGACACACACUGACGAAGCAGAAGGAACAUGAGGAUCACCCAUGUAAGCA [Mat - Exaclusion 4 - Eli mod - D63]  17.1 nM
2. AAAAAGUGAGGAUAUGCGCUGUCAAGUAGACACGAGCAGUCGUAGAAGGCACAUGAGGAUCACCCAUGUUUAAA [EX4 Malc#23]  19.4 nM
3. AUCAUGUUAGGAUAUUUAAGAAAAGAAAAGAAAGAAAAGAAAAAGAAGGAACAUGAGGAUCACCCAUGUAAGAA [EteRNA is fun!]  22 nM
4. AAAAAGUGAGGAUAUGUACGAAAAAAUAAAAAAAUAAAAGUACAGAAGGCACAUGAGGAUCACCCAUGUGAAAA [EX4 397: Minimal 10]  22.9 nM
5. UAGAACCUAGGAUAUACUUGGACCACUAAUUUACAGAUAUAACAUGAGGAUCACCCAUGUAGAAGGAGGAGUAA [JR_Exc002_Sub202]  25.7 nM
6. GAAAACAGAGGAUAUACAUAAGCUAGACGAAAGUCUAGCAAACAUGAGGAUCACCCAUGUAGAAGGCUGAAGAA [Meechl Mod]  27.7 nM
7. GAGGAACAUGAGGAUCACCCAUGUGAGGAUAUCGGAGGAGGAGGAGGAGGAGGAGGAGCGAGAAGGUACAAGAG [salish99-Ex1-03]  29.8 nM
8. AGAAAUACAGGAUAUACAUGGGAAAAAAAAAAAAAAAUUCUACAUGAGGAUCACCCAUGUAGAAGGGUAUUUCA [Ex2 Design 170: Random 1]  32 nM
9. AUCAUGUUAGGAUAUACAAGAAAAGAAAAGAAAGAAAAGAAGUAGAAGGAACAUGAGGAUCACCCAUGUAAGAA [EteRNA is fun!]  32.3 nM
10. AAGAAGUGAGGAUAUCGAAGACUGUCGAAAAGACAGUCGAACGAGAAGGCACAUGAGGAUCACCCAUGUGAAAA [Marsurpial 65% 4]  33.1 nM
11. AAGUAACAUGAGGAUCACCCAUGUGAGGAUAUGAUUUAAGUUGUAAAAGUAAUAAAGGUCAGAAGGUAUGUGAA [Exclusion 1.2]  34.7 nM
12. GGAAAACAUGAGGAUCACCCAUGUCAGGAUAUACAAAGAAAGAAAGAAAAGAAAGAAAGUAGAAGGGACUAAAG [Amethyst 16]  37.9 nM
13. AAAAAGUCAGGAUAUACGAACAUGUCAAAAGACGUGAAGGGACAUGAGGAUCACCCAUGUAGAAGGGACAAGAA [JL Stem Breaker 20]  39.6 nM
14. AACGAGUCAGGAUAUGCUAUAAAUUAAUAAAUAAAAUUAUAGCAGAAGGGACAUGAGGAUCACCCAUGUAAAUA [JR_Exc004_Sub201]  42.2 nM
15. AAAAAACAUGAGGAUCACCCAUGUGAGGAUAUGCUAAAAAAAUCCGCAUAAAAAAAUAGCAGAAGGCACAUAAA [PK1]  44.1 nM
16. GAAGAACAUGAGGAUCACCCAUGUGAGGAUAUACAGAAGGGAAUAAAAUAACCAGAAAGUAGAAGGCACAAGAA [Ex 1 May 40]  45.7 nM
17. AGCUAGUCAGGAUAUACAAAAAUGCUAGAAGACGUAAGGGAACAUGAGGAUCACCCAUGUAGAAGGGACUAGCA [Diamond 45]  58.3 nM
18. AAAAAGUUAGGAUAUACAUGAGGAUCACCCAUGUGCACGUAUGGAGAAUAUGGUGGUGGUAGAAGGGACAAAAA [EX2 Malc#19]  65.5 nM
19. AAGAAACAUGAGGAUCACCCAUGUCAGGAUAUCGAAAAGAAAAGAAAAGAAAGAAGAACGAGAAGGGACAAAGG [Qakare Ibi]  67.8 nM
20. AUAAAGCGAGGAUAUACAUGAGGAUCACCCAUGUAAAUAAAUAGGAGAGCCACAAUAAGUAGAAGGUGUAAUAA [JR_Exc003_Sub009]  73.3 nM
21. CAGUACUGAGGAUAUACAUGAGGAUCACCCAUGUAUCCUAGCUAGGAAACUAGCAAAAGUAGAAGGCAGUACUG [Ex3: 819]  118 nM
22. AAAAUGUCAGGAUAUGCGAAGGCGUCUGAUAGAAGAGGAUAGCAGAAGGGACAUGAGGAUCACCCAUGUGGAAA [Opal 25]  124 nM
23. AACAGUACAGGAUAUACAUGAGGAUCACCCAUGUGAAAGAAAAGUGGCGUACCACAAAGUAGAAGGGUACUGAA [Mat - Exclusion 3 - JL mod - D28]  134 nM
24. AAGAAACAUGAGGAUCACCCAUGUGAGGAUAUGCAAAAGAAAAGAAAAGAAAGAAGAAGCAGAAGGCACAAAGG [Neferkahor]  138 nM
25. GGUUGGCGAGGAUAUACAUGAGGAUCACCCAUGUGAGAGAAAAAAGUGAGAAAGAAUAGUAGAAGGCGCUGACG [salish99-ex3-40]  255 nM

From the supplement of paper PMC9170038
